Laboratory results reported in paper PMC9375095.

Biological target: E-cadherin (human (endogenous in MCF7, HaCaT and FFPE human tissue))
Test: MolBoolean (proximity assay with antibody-DNA conjugates); FFPE human tissue sections after deparaffinisation and antigen retrieval; secondary proximity probes; percentage of RCPs in each category per frame

Sequence of E-cadherin (human (endogenous in MCF7, HaCaT and FFPE human tissue)) (P12830 23-882): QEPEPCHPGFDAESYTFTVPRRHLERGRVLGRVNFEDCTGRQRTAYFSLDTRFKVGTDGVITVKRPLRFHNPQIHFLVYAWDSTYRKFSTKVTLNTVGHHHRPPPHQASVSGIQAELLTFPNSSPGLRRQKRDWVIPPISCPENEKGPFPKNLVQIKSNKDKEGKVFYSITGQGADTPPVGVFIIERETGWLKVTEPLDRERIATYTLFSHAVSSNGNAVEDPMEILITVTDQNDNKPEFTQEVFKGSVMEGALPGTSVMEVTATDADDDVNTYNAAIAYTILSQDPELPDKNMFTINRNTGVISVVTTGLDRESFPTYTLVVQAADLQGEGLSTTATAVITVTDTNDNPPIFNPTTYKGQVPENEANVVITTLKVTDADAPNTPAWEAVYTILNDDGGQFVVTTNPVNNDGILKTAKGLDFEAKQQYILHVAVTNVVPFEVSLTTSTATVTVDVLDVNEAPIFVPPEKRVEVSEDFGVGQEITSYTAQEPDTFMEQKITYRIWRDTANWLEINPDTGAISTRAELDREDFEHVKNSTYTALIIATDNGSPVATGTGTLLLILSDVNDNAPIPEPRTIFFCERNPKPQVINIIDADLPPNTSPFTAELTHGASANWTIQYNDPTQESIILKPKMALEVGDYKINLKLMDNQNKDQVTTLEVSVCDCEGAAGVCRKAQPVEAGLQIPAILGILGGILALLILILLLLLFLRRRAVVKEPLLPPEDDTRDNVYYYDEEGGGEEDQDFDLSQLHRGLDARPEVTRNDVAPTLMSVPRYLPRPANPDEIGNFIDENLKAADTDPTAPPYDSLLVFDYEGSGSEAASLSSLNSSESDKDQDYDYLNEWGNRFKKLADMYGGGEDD

percent of the detected signal per image from complexes: 50%
Substance: β-catenin (from UniProt P35222 1-781) (natural protein)
